Target: p53 DBD WT (UniProt P04637 94-312)
Experiment: EMSA; protein:DNA 1:1, 9:1, 454:1; binding kept 24 h to 1 month; EMSA on TBE gels; protein in 1X PBS, 1 mM TCEP, pH 7.4; DNA stocks in 50 mM Tris-HCl, 137 mM NaCl, pH 8.1; samples held at 4 C (0 hr) or incubated (37 C, 24 h for aggregation); full EMSA details not in material
Settings: protein: recombinant; tags: 6xHis-TEV (N-terminal); blunt

Sequence of p53 DBD WT (P04637 94-312): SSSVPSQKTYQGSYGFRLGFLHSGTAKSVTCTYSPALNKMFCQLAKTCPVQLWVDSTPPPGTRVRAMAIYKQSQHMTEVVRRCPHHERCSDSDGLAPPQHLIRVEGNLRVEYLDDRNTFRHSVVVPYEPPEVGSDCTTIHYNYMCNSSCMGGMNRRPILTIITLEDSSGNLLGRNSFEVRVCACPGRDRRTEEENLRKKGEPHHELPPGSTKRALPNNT

B1: p21-RE (dsDNA)
DNA 1: CGCGAACATGTCCCAACATGTTGCGC
DNA 2: GCGCAACATGTTGGGACATGTTCGCG
binding result: binds
